The numbers were not newly measured in publication PMC4888498, which cites them from elsewhere.

Data set [1] has as its target T1, TvFL3 Thermoplasma volcanium (Thermoplasma volcanium GSS1) (UniProt Q979L0).
T1 sequence: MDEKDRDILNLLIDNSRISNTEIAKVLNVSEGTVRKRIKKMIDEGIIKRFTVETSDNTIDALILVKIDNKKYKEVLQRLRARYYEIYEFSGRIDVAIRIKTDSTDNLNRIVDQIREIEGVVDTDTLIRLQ
Briefly: EMSA. On the technique in general: In EMSA bound probe runs differently from free probe, usually more slowly.

Data set [2] concerns the target T2, Ss-LrpB Sulfolobus solfataricus (Saccharolobus solfataricus P2) (UniProt Q7LX67).
T2 sequence: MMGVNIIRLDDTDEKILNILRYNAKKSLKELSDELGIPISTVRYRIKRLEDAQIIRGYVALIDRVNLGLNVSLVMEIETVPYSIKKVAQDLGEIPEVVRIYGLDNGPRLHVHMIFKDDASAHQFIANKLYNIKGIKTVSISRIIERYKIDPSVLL
Briefly: EMSA.

“GAAATTAATACGACTCACTATGGGGAGAGAGACGGACGAAATTCGTCCCTGTGTGTCGCTAGTTATTGCTCAGCGGTGG (double strand) [19468044-FFRP-2]”: in data set [1], the Ka is 9e+06 M⁻¹. Consider “GAAATTAATACGACTCACTATGGGGAGAGAGACGGTCGAAATTCGACCCTGTGTGTCGCTAGTTATTGCTCAGCGGTGG (double strand) [19468044-FFRP-4]”, for which, in data set [1], the Ka was 7.3e+06 M⁻¹.

Turning to “GAAATTAATACGACTCACTATGGGGAGAGAGACGTACGAAATTCGTACCTGTGTGTCGCTAGTTATTGCTCAGCGGTGG (double strand) [19468044-FFRP-1]”, in data set [1], the Ka was 1.28e+07 M⁻¹. Consider “GAAATTAATACGACTCACTATGGGGAGAGAGACGTTCGAAATTCGAACCTGTGTGTCGCTAGTTATTGCTCAGCGGTGG (double strand) [19468044-FFRP-3]”, for which the Ka in data set [1] was 8.2e+06 M⁻¹. For the sequence “GAAATTAATACGACTCACTATGGGGAGAGAGACTTGCAAAATTTGCAACTGTGTGTCGCTAGTTATTGCTCAGCGGTGG (double strand) [19468044-FFRP-7]”, the Ka in data set [2] was 3.5e+07 M⁻¹.
